Experimental findings from US20030180295A1 (PHILADELPHIA HEALTH AND EDUCATION, published 2003) are described below.

This experiment has as its target T1, Thrombospondin (TSP-1) (UniProt P07996 19-1170, biotinylated in the ligand blot of Example 5).
T1 construct: also called thrombospondin-1; biotinylated TSP-1
Kind of experiment: resonant mirror biosensor, peptide alone on immobilized TSP-1.

T1 sequence (P07996 19-1170 limits assumed): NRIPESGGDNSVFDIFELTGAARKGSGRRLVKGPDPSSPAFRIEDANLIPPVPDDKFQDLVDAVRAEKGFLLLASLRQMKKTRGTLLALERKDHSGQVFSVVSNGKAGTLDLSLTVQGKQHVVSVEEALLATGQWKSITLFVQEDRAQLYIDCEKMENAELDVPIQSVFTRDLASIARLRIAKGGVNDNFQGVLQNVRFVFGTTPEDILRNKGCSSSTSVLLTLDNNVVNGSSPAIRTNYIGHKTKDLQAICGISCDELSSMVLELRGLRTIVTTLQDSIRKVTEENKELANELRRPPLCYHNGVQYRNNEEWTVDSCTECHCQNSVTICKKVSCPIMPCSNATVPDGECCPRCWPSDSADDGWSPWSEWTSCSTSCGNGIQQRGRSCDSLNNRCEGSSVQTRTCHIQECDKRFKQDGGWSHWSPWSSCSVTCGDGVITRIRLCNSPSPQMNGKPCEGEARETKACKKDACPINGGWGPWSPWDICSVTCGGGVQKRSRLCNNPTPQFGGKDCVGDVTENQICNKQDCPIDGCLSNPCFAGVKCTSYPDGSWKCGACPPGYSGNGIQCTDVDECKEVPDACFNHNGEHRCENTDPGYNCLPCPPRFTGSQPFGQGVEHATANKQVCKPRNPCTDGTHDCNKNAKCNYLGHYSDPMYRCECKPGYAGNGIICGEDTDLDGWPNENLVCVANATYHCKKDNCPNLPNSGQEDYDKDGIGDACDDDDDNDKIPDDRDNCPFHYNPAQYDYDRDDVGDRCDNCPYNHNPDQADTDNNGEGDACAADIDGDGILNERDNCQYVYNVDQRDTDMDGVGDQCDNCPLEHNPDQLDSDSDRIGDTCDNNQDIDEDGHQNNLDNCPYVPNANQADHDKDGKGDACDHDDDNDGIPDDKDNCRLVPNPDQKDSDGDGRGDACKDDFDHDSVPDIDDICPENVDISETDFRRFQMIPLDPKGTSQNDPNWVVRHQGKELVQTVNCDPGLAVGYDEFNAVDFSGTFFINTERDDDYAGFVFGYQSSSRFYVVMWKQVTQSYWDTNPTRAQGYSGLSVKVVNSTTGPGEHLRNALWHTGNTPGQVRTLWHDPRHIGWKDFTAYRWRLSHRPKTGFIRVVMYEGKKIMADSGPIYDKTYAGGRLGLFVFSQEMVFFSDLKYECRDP

B1: Pro-His-Ser-Arg-Asn (SEQ ID NO: 10) (peptide)
peptide: PHSRN
notes: also called random negative control peptide; control peptide
In the case of B1, the binding result is reported as “no binding”.
